Test results: article PMC4909763 (Frontiers in Plant Science, 2016)

Biological target: the molecule itself
Experiment: native gel or EMSA

B1: ER-retained plant-made recombinant human butyrylcholinesterase (prBChE-ER) (enzyme)
chain: EDDIIIATKNGKVRGMNLTVFGGTVTAFLGIPYAQPPLGRLRFKKPQSLTKWSDIWNATKYANSCCQNIDQSFPGFHGSEMWNPNTDLSEDCLYLNVWIPAPKPKNATVLIWIYGGGFQTGTSSLHVYDGKFLARVERVIVVSMNYRVGALGFLALPGNPEAPGNMGLFDQQLALQWVQKNIAAFGGNPKSVTLFGESAGAASVSLHLLSPGSHSLFTRAILQSGSFNAPWAVTSLYEARNRTLNLAKLTGCSRENETEIIKCLRNKDPQEILLNEAFVVPYGTPLSVNFGPTVDGDFLTDMPDILLELGQFKKTQILVGVNKDEGTAFLVYGAPGFSKDNNSIITRKEFQEGLKIFFPGVSEFGKESILFHYTDWVDDQRPENYREALGDVVGDYNFICPALEFTKKFSEWGNNAFFYYFEHRSSKLPWPEWMGVMHGYEIEFVFGLPLERRDNYTKAEEILSRSIVKRWANFAKYGNPNETQNNSTSWPVFKSTEQKYLTLNTESTRIMTKLRAQQCRFWTSFFPKVLEMTGNIDEAEWEWKAGFHRWNNYMMDWKNQFNDYTSKKESCVGLKDEL
notes: also called prBChE+KDEL; rBChE+KDEL
stoichiometry N: 4

B2: plant-made recombinant human butyrylcholinesterase, apoplast-targeted (prBChE) (enzyme, UniProt P06276 29-602, looked up)
chain: EDDIIIATKNGKVRGMNLTVFGGTVTAFLGIPYAQPPLGRLRFKKPQSLTKWSDIWNATKYANSCCQNIDQSFPGFHGSEMWNPNTDLSEDCLYLNVWIPAPKPKNATVLIWIYGGGFQTGTSSLHVYDGKFLARVERVIVVSMNYRVGALGFLALPGNPEAPGNMGLFDQQLALQWVQKNIAAFGGNPKSVTLFGESAGAASVSLHLLSPGSHSLFTRAILQSGSFNAPWAVTSLYEARNRTLNLAKLTGCSRENETEIIKCLRNKDPQEILLNEAFVVPYGTPLSVNFGPTVDGDFLTDMPDILLELGQFKKTQILVGVNKDEGTAFLVYGAPGFSKDNNSIITRKEFQEGLKIFFPGVSEFGKESILFHYTDWVDDQRPENYREALGDVVGDYNFICPALEFTKKFSEWGNNAFFYYFEHRSSKLPWPEWMGVMHGYEIEFVFGLPLERRDNYTKAEEILSRSIVKRWANFAKYGNPNETQNNSTSWPVFKSTEQKYLTLNTESTRIMTKLRAQQCRFWTSFFPKVLEMTGNIDEAEWEWKAGFHRWNNYMMDWKNQFNDYTSKKESCVGL
notes: also called prBuChE; prBChE-AWF
stoichiometry N: 4
